B2: human Rap1 isoform Rap1b (residues 1–167) (natural protein)
chain: MREYKLVVLGSGGVGKSALTVQFVQGIFVEKYDPTIEDSYRKQVEVDAQQCMLEILDTAGTEQFTAMRDLYMKNGQGFALVYSITAQSTFNDLQDLREQILRVKDTDDVPMILVGNKCDLEDERVVGKEQGQNLARQWNNCAFLESSAKSKINVNEIFYDLVRQINR

Experiments:
[1] = target: B2; assay: NMR titration
[2] = target: murine talin1 head domain, residues 1–400 (THD) (murine, UniProt P26039 1-400); assay: NMR titration
Sequence of murine talin1 head domain, residues 1–400 (THD) (P26039 1-400): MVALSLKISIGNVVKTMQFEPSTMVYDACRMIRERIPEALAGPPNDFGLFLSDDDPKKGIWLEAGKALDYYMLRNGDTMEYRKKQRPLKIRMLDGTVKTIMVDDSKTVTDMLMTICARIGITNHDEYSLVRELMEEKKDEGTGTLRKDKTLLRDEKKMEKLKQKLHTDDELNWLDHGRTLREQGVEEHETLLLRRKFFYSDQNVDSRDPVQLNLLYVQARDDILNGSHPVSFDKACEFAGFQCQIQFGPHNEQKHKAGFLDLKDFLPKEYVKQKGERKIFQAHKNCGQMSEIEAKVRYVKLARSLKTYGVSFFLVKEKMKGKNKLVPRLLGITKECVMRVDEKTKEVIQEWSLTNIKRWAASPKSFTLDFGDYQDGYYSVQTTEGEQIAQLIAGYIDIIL

B1: talin1 F1(ΔL), residues 84–196 Δ141–170 (F1 Δloop) (domain or fragment)
chain: KQRPLKIRMLDGTVKTIMVDDSKTVTDMLMTICARIGITNHDEYSLVRELMEEKKDELNWLDHGRTLREQGVEEHETLLLRRK
B1: binds [1].

B2: binds [2].

Reference: paper PMC6548133 (The Journal of Cell Biology, 2019)
